Measurements from the supplement of paper PMC12042874.
± gives the uncertainty stated by the source.

Experiment: amyloid nucleation score (Sup35N fusion, yeast selection) (log enrichment); library NNK1; higher = more nucleation; inactive = no reads after selection
How it was run: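 The nucleation score equals the log enrichment of output over input reads from DiMSum, centred on the mode score of non-aggregating sequences. It was computed only for sequences with 100 or more input reads. The reads came from Illumina sequencing of plasmid inserts from psi-negative yeast expressing Sup35N fused to peptides of 20 random codons, induced with 100 μM copper sulfate for 24 hours and grown 7 days at 30°C without adenine and uracil.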

RHHCKTCASYCFRIFIAEMM and AFDWSMSAKDQINEQTLNSV are within error of each other in amyloid nucleation score: 0.216 ± 0.42 for the first, 0.617 ± 0.28 for the second.

TTLVKPDEIVFVSINECWCW and DTFCQL are within error of each other in amyloid nucleation score: 0.021 ± 0.59 for the first, -0.147 ± 1.1 for the second.

MNKIITRTRSMATSDSTRHS and AGFSSDFASVPHPLGYGWLT are within error of each other in amyloid nucleation score: 0.052 ± 0.67 for the first, -0.662 ± 1.2 for the second.

NFRNSLRSV and RYCNKTFSTLSPVHLF are within error of each other in amyloid nucleation score: 1.24 ± 0.59 for the first, 1.11 ± 0.97 for the second.

CSREYDVVGLA and PRRHYGLRFGHGHLISVWLR are within error of each other in amyloid nucleation score: 0.401 ± 0.28 for the first, 0.642 ± 0.41 for the second.

GWTTYPSNN and MLRTSARSQRGNRGLAKMGF are within error of each other in amyloid nucleation score: 0.996 ± 0.37 for the first, -1.87 ± 2.7 for the second.

Compared with IWDASKVGSYAELHTLM, YEFVRRDHVPFRLGMSNPED is higher in amyloid nucleation score: 0.744 ± 0.33 for the first, 1.76 ± 0.53 for the second.

First: MILWPS
Second: WRSNI
The amyloid nucleation score of the first is higher: 1.64 ± 0.16 for the first, -0.151 ± 0.49 for the second.

First: MRFKRRSGFGELGMFAFTPL
Second: MACKIIYVTVEGMLRSRS
The amyloid nucleation score of the first is lower: -0.628 ± 0.5 for the first, 1.31 ± 0.56 for the second.

SYGYSMLAGVWT and YFPIGYFVRKEDYGTCENDD are within error of each other in amyloid nucleation score: 0.057 ± 1.1 for the first, 0.386 ± 0.31 for the second.

NYVYPRVLYSFQVLLYPSKD and TFYYPINFHTLGLYKLVVML are within error of each other in amyloid nucleation score: 0.704 ± 0.49 for the first, 0.589 ± 0.33 for the second.

First: FGLVREVFKM
Second: AHSALVTRTYSINIYFVSVE
The amyloid nucleation score of the first is lower: 0.171 ± 0.59 for the first, 1.51 ± 0.21 for the second.

SCMESSVTL and MIVGGNLEEIVNHCYFCVER are within error of each other in amyloid nucleation score: 0.656 ± 0.35 for the first, 0.511 ± 0.24 for the second.

PILSNLHIPMCPENVNGRGS and YEFMWRVNTLWRENLFYSGR are within error of each other in amyloid nucleation score: 0.939 ± 0.33 for the first, 0.156 ± 0.59 for the second.

NANINFSNTMQADVL and LGIAGER are within error of each other in amyloid nucleation score: 0.116 ± 0.31 for the first, 0.294 ± 0.33 for the second.

Going from FTLHVSFRGSDDIKSVFYCS to LISVCRFLAIILFRTFA, the amyloid nucleation score falls from 3.29 ± 0.11 to 0.365 ± 0.69.

MFRYNCRRAIQIVFMYLWTP and CLSRHLKNGPRMA are within error of each other in amyloid nucleation score: 0.779 ± 0.28 for the first, 0.495 ± 1 for the second.

Going from TFQNVLLLGSLVWNNNKS to IWCVFIQWLCSRRVERQSCR, the amyloid nucleation score rises from 0.24 ± 0.55 to 4.31 ± 0.11.

Compared with QGLSGDDCLHGNFKFHMSET, GTFSGRKEL is higher in amyloid nucleation score: -0.243 ± 0.32 for the first, 0.463 ± 0.3 for the second.

VCFWSGEGNLGAWDGHELSM and SLSLDSNEKRKRICFW are within error of each other in amyloid nucleation score: 0.693 ± 0.46 for the first, 1.36 ± 0.29 for the second.

Compared with YELDWWSLLQE, LSVGLKVDDEDQRLTYFVTI is lower in amyloid nucleation score: 1.12 ± 0.4 for the first, -0.614 ± 0.62 for the second.

First: NFYMGETDGACLCASMRDPQ
Second: CLQMRSVSYVIMRFTGKLTW
The amyloid nucleation score of the first is higher: 2.62 ± 0.14 for the first, 0.693 ± 0.32 for the second.

EQPGVHYQNQFYKHVLYNAS and VIHLSVSWLGMLSGWANLFV are within error of each other in amyloid nucleation score: 0.587 ± 0.38 for the first, -0.529 ± 0.94 for the second.

YKRCAPDRHYG and CLVYVQLWVARMSYPCVRFG are within error of each other in amyloid nucleation score: 1.06 ± 0.58 for the first, 0.214 ± 0.32 for the second.

IRWTEL and MWWCGSHSFSFYFRLRSDWR are within error of each other in amyloid nucleation score: 0.512 ± 0.24 for the first, 0.829 ± 1 for the second.

QSTMIASMRYSFFACAVLYI and CACVIRIFNLMVMWDILYWS are within error of each other in amyloid nucleation score: 0.074 ± 0.51 for the first, 0.748 ± 1.2 for the second.

RFVWVMSYGPSTYILHVWFV and MHNIASC are within error of each other in amyloid nucleation score: 0.248 ± 0.39 for the first, 0.629 ± 0.48 for the second.

Compared with LSCLRSYVTMHMGIIGYLFN, FYDLFNVNIGLGDFKSVCFL is higher in amyloid nucleation score: 0.218 ± 0.27 for the first, 2.66 ± 0.2 for the second.

RFSDT and SSMGPFLSV are within error of each other in amyloid nucleation score: -0.568 ± 0.3 for the first, 0.014 ± 0.48 for the second.

SLMWLWIFSRAGSLSLLLIA and KHCRVSPNVSECAFKGAMCL are within error of each other in amyloid nucleation score: 0.718 ± 1.2 for the first, 1.17 ± 0.63 for the second.

VKSWKLERRMRVAMLDTLVI and KKYVRGWGAFLAMQHGGMM are within error of each other in amyloid nucleation score: 0.367 ± 1.2 for the first, -0.604 ± 0.6 for the second.

NFMEYYKIRVMCWANR and GKSILVVSFARKLF are within error of each other in amyloid nucleation score: 0.616 ± 0.29 for the first, -0.18 ± 1.2 for the second.

First: QCTVGASMD
Second: NMKRQRAHPMFS
The amyloid nucleation score of the first is higher: 0.169 ± 0.34 for the first, -0.707 ± 0.45 for the second.

First: TRMITWRPFRSSWVFTNLYE
Second: PIFSYFALFLGLIKHCIMSQ
The amyloid nucleation score of the first is higher: 2.04 ± 0.19 for the first, -0.238 ± 0.53 for the second.

Compared with TCFGL, SACFYTATVFFMYNSFGSNV is higher in amyloid nucleation score: -0.702 ± 1.2 for the first, 5.611 ± 0.055 for the second.

FKNVHFRNS and RRKLACCCRFSVLSSGCVQN are within error of each other in amyloid nucleation score: -1.69 ± 1.3 for the first, -0.668 ± 1.7 for the second.

DFNYPDSSCLGFKCLNAHWV and PVSFRILIVEVGLLCRLGAI are within error of each other in amyloid nucleation score: -0.731 ± 0.33 for the first, 0.165 ± 0.75 for the second.

Going from ARRLFAAMLLRDWVPLTSQM to VMGSGLRMGLAESCVENGAS, the amyloid nucleation score falls from 1.27 ± 0.66 to -0.021 ± 0.31.

CLWSSVGRQTEWFSHEVNGG and TAMRSHLSVPSNVTLPCIKH are within error of each other in amyloid nucleation score: 0.017 ± 0.43 for the first, 0.082 ± 0.46 for the second.

TYWFMSRC and CRPVGRRYKWFTFSGGLLLR are within error of each other in amyloid nucleation score: 0.254 ± 0.88 for the first, 1.14 ± 0.9 for the second.

GGRNF and YRAKSSEGL are within error of each other in amyloid nucleation score: -0.696 ± 0.57 for the first, -0.631 ± 0.71 for the second.

Going from FGWLKPR to IHALLRQNMD, the amyloid nucleation score falls from 0.994 ± 0.49 to -0.599 ± 0.39.

In the case of NVFILMCITKRFCNWLNISS, the amyloid nucleation score is reported as -0.773 ± 1.5.

With TLLWGTLSAGHS the amyloid nucleation score was “inactive”.
For MGVYTCR, the amyloid nucleation score was “inactive”.
For YRVLELFYFV, the amyloid nucleation score was “inactive”.
